In the nanobody polyreactivity screen of Harvey et al. (2022):

Test: yeast display, Sf9 membrane polyspecificity reagent, FACS + sequencing; frameworks hold sequencing errors
Outline: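 Galactose induction of a Saccharomyces cerevisiae BJ5465 synthetic nanobody display library ran 36–48 hours. The cells were then stained for 1 hour at 4 °C with 10% biotinylated, detergent-solubilized Sf9 membrane reagent, pulled down on streptavidin microbeads and FACS-sorted into low and high (top ~1%) gates on expression and reagent-binding fluorescence. Labels for polyreactivity follow the gate of origin.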

Sequence | polyreactivity (PSR sort gate)
QVQLVESGGGLVQAGGSLRLSCAASGRTFYLYAMGWYRQAPGKERELVAAITWRGGSTYYADSVKGRFTISRDNAKNTVYLQMNSLKPEDTAVYYCSAVTFFYYSAVRYEYYYWGQGTQVTVSS | high polyreactivity
QVQLVESGGGLVQAGGSLRLSCAASGRTFYNAMGWYRQAPVKEMELVAAITTGGGTKYADSVKGRFTISRDNAKNTFYLQMNSLKPEDTAVYYCNTDEWYHFYHGAHKYDYWGQGTQVTLSS | low polyreactivity
QVQLVESGGGLVQAGGSLRLSCAASGRTFYNYAMGWYRQAPGKEREFVAAITFRTSSTYYADSVKGRFTISRDNAKNTVYLQMNSLKQEDTAVYYCNADRYWGYDYWGQGTQVTVSS | high polyreactivity
QVQLVESGGGLVQAGGSLRLSCAASGRTFYNYAMGWYRQAPGKERELVAAISGSGGSTYYADSVKGRFTISRDNAKNTVYLQMNSLKPEDTAVYYCAARKDSYYYRSYDSWGQGTQVTVSS | high polyreactivity
QVQLVESGGGLVQAGGSLRLSCAASGRTFYNYAMGWYRQAPGKERELVATINWSGGRTYYADSVKGRFTISRDNAKNTVYLQMNSLKAEDTAVYYCAKTWLYQSNEYGYWGQGTQVTVSS | low polyreactivity
QVQLVESGGGLVQAGGSLRLSCAASGRTFYPNAMGWYRQAPGKERELVARITTRGGSTYYADSVKGRFTISRDNAKNTVYLQMNSLKPEATAVYYCAVDYNSDWAYDYWGQGTQVTVSS | high polyreactivity
QVQLVESGGGLVQAGGSLRLSCAASGRTFYPYAMGWYRKAPVKERDLVAAISWSGGSTRYADSVKGRFTISRDNAKNTVDLQMNSLKPEDTAVYYCNTQYSWYYPADYDYWGQGTQVTVSS | low polyreactivity
QVQLVESGGGLVQAGGSLRLSCAASGRTFYPYAMGWYRQAPGKERELVAAISSGGSTTYADSVKGRFTISRDNAKNTVYLQMNSLKPEDTAVYYCAVYGTERLAFDYWGQGTQVTVSS | low polyreactivity
QVQLVESGGGLVQAGGSLRLSCAASGRTFYPYAMGWYRQAPGKERELVASINWSGASTYYADSVKGRFTISRDNAKNTVYLQMNSLKPEDTAVYYCAAYITYLSSRFWYGYWGQGTQVTVSS | high polyreactivity
QVQLVESGGGLVQAGGSLRLSCAASGRTFYPYDMGWYRQAPGKERELDAAISRSGGSTYYADSVKGRFTISRDNAKNSVYLQMNSLKPEDTAVYYCAAVYYSYSFVDHYDYWGQGTQVTVSS | low polyreactivity
QVQLVESGGGLVQAGGSLRLSCAASGRTFYPYVMGWYRQSPGKERELVASISWSGGSTYYADSVKGRFTFSRDNAKNSVYLQMNSLKPEDTAVYYCAALWPYGYWGQGTQVTVSS | low polyreactivity
QVQLVESGGGLVQAGGSLRLSCAASGRTFYQYAMGWYRQAPGKERELVAAISRSGTSTYYADSVKGRFTISRDNAKITVYLQMNSLKPEDTAVYYCATSTGRGYSWGQGTQVTVSS | high polyreactivity
QVQLVESGGGLVQAGGSLRLSCAASGRTFYQYAMGWYRQAPGKERELVAAISWSDGSTSYADSVKGRFTISRDNAKNTVYLQMNSLKQEDTAVYYCAKDWTGTKAIEYDYWGQGTQVTVSS | low polyreactivity
QVQLVESGGGLVQAGGSLRLSCAASGRTFYQYAMGWYRQAPGKERELVAAITTSGGSTYYADSVKGRFTISRDNAKNTVYLQMNSLKPEDTAVYYCAAPYTGYRERGSYKSDYWGQGTQVTVSS | low polyreactivity
QVQLVESGGGLVQAGGSLRLSCAASGRTFYQYTMGWYRQAPGKERELVATISDSTNYADSVKGRFTISRDNAKNTVYLQMNSLKPEDTAVYYCNARVRGLGKYESWGQGTQVTVSS | low polyreactivity
QVQLVESGGGLVQAGGSLRLSCAASGRTFYRNAMGWSRQAPGKERELVAAISYRGGRTYYADSVKGRFTISRDNAKNTVYLQMNSLKPEDTAVYYCAADLRTRVPYDYWGQGTQVTVSS | high polyreactivity

Sequence | polyreactivity (PSR sort gate)
QVQLVESGGGLVQAGGSLRLSCAASGRTFYRNAMGWYRQAPGKERELVAAIRTRTGSTYYADSVKGRFTISRDNAKNTVYLQRNSLKPEDTAVYYCNASPYVNGRYGSWGQGTQVTVSS | high polyreactivity
QVQLVESGGGLVQAGGSLRLSCAASGRTFYRNAMGWYRQAPGKERELVAAISGSGVRTYYADSVKGRFTISRDNAKNTVYLQMNSLKPEDTAVYYCARSVTWFRGRFSPDYGSWGQGTQVTVSS | high polyreactivity
QVQLVESGGGLVQAGGSLRLSCAASGRTFYRNAMGWYRQAPGKERELVAAISRSGGRTYYADSVKGRFTISRDNAKNTVYLHMNSLKPEDTAVYYCNAQPTLAVADYDYWGQGTQVTVSS | high polyreactivity
QVQLVESGGGLVQAGGSLRLSCAASGRTFYRNAMGWYRQAPGKERELVAAISRSGGRTYYADSVKGRFTISRDNAKNTVYLQMNSLKPEDTAVYYCNAQPTLAVADYDYWGQGTQVTVSS | high polyreactivity
QVQLVESGGGLVQAGGSLRLSCAASGRTFYRNAMGWYRQAPGKERELVAAISWRGGSTFYADSVKGRFTISRDNAKNTVYLQMNSLKPEDTAVYYCNAGSNSFSRVEYWGQGTQVTVSS | low polyreactivity
QVQLVESGGGLVQAGGSLRLSCAASGRTFYRNAMGWYRQAPGKERELVAAITSGGSTYYADSVKGRFTISRDNAKNTVYLQINSLKPEDTAVYYCAKRKGWVPSRSWTPAFWGQGTQVTVSS | low polyreactivity
QVQLVESGGGLVQAGGSLRLSCAASGRTFYRYAMGWYRQAPGKERELVAAISTRGGTTYYADSVKGRFTISRDNAKNTVYLQMNSLKPEDTAVYYCAADSVYAEDDSWGQGTQVTVSS | low polyreactivity
QVQLVESGGGLVQAGGSLRLSCAASGRTFYRYAMGWYRQAPGKERELVAAITTGGGSTYYADSVKGRFTISRDNAKNTVYLQMNSLKPEDTAVYYCNVYSSYTRRTLGDYWGQGTQVTVSS | high polyreactivity
QVQLVESGGGLVQAGGSLRLSCAASGRTFYRYAMGWYRQAPGKERELVAAMSRSGTTYYADSVKGRFTISRDNAQNTVYFQMNSLKPEDTALYYCAAKPAARQRGGDYWGQGTQVTVSS | high polyreactivity
QVQLVESGGGLVQAGGSLRLSCAASGRTFYRYAMGWYRQAPGKERELVATITLRGGRTYYADSVKGRFTISRDTAKNTVYLQMNSLKPEDTAVYYCAKYHWRLSFSRYPYDYWGQGTQVTVSS | high polyreactivity
QVQLVESGGGLVQAGGSLRLSCAASGRTFYRYAMGWYRQAPGKERLVAAITWNGGSTYYADSVKGRFTISRDNAKNTVYLQMNSLNPEDTAVYYCAATFGGVSWRRPHRFDYWGQGTQVTVSS | high polyreactivity
QVQLVESGGGLVQAGGSLRLSCAASGRTFYRYSMGWYRQAPAKERELVAAISSSGGRTYYADSVKGRFTISRDNAKNTVYLQMNSLKPEDTAVYYCIKAYYYWYDWGQGTQVTVSS | high polyreactivity
QVQLVESGGGLVQAGGSLRLSCAASGRTFYRYTMGWYRQAPAKERELVAAISWSGGSTYYADSVKGRFTISRDNAKNTVYLQMNSLKPEDTAVNYCAKATYWLYVQWYTYGYWGQGTQVTVSS | high polyreactivity
QVQLVESGGGLVQAGGSLRLSCAASGRTFYRYTMGWYRQAPGKERELVAGISWRGGTTYYADSVKGRFTISRDNAKNTVYLQMNSLKPEDTAVYYCAAKAGYRYGSLAYYKYDYWGQGTQVTVSS | high polyreactivity
QVQLVESGGGLVQAGGSLRLSCAASGRTFYSNAMGWYRQAPGKERELVAAISSSGSSTSYADSVKGRFTMSRDNAKNTVYLQMNSLKPEDTAVYYCAVRTKRRANRDYWGQGTQVTVSS | high polyreactivity
QVQLVESGGGLVQAGGSLRLSCAASGRTFYSNSMGWYRQAPGKERELVATISWRGGSTYYADSVKGRFTISRDNAKNTVYFQMHSLKPEDTAVYYCAAGYYPYWGQGTQVTVSS | low polyreactivity
